Results: the supplement of paper PMC7877785
± gives the uncertainty stated by the source.

Assay: self-splicing fitness, log relative to wild type (ln ratio); higher = more splicing; Tetrahymena group I intron in knt gene, E. coli kanamycin selection, DiMSum; sequences stand for … in CUCUCU…GGAGGGAAAAGUUAUCAGGCAUGCACCUGGUAGCUAGUCUUUAAACCAAUAGAUUGCAUCGGUUUAAAAGGCAAGACCGUCAAAUUGCGGGAAAGGGGUCAACAGCCGUUCAGUACCAAGUCUCAGGGGAAACUUUGAGAUGGCCUUGCAAAGGGUAUGGUAAUAAGCUGACGGACAUGGUCCUAACCACGCAGCCAAGUCCUAAGUCAACAGAUCUUCUGUUGAUAUGGAUGCAGUUCACAGACUAAAUGUCGGUCGGGGAAGAUGUAUUCUUCUCAUAAGAUAUAGUCGGACCUCUCCUUAAUGGGAGCUAGCGGAUGAAGUGAUGCAACACUGGAGCCGCUGGGAACUAAUUUGUAUGCGAAAGUAUAUUGAUUAGUUUUGGAGUACUCGUGGUCG
Procedure, shortened: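 The eight P1ex-region nucleotides of an intron in the knt kanamycin-resistance gene on pET-22b(+) were all randomised and the library put into E. coli BL21(DE3). Six replicate transformations were grown overnight at 37°C or 30°C on LB agar with or without 25 μg/mL kanamycin, together with 100 μg/mL carbenicillin, 50 μM IPTG and 0.2% rhamnose. Colonies were pooled and amplicon-sequenced on an Illumina HiSeq 2500. Fitness from DiMSum is the error-weighted combination of wild-type-normalised replicate fold changes, kanamycin over none.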

Sequence	self-splicing fitness (ln) (30 °C)	self-splicing fitness (ln) (37 °C)
CAUGAGCAAUAUUACGUAUC	-3.9 ± 0.32	-3.15 ± 0.25
CAUGAGCAAUAUUACGUCCA	-2.74 ± 0.33	-2.28 ± 0.34
CAUGAGCAAUAUUACGUUCU	-3.59 ± 0.27	-3.11 ± 0.26
CAUGAGCAAUAUUACGUUUC	-2.86 ± 0.34	
CAUUAGCAAUAUUACGAAAG	-0.84 ± 0.12	-0.567 ± 0.13
CAUUAGCAAUAUUACGAACC	-3.51 ± 0.46	-1.98 ± 0.34
CAUUAGCAAUAUUACGAAUC	-4.46 ± 0.31	-2.49 ± 0.18
CAUUAGCAAUAUUACGACCG	0.0272 ± 0.082	0.169 ± 0.1
CAUUAGCAAUAUUACGACGU	-1.47 ± 0.12	-0.0623 ± 0.14
CAUUAGCAAUAUUACGAUGC		-3.61 ± 0.42
CAUUAGCAAUAUUACGCACU	-1.26 ± 0.1	-0.806 ± 0.13
CAUUAGCAAUAUUACGCCCU	-2.38 ± 0.22	-1.55 ± 0.24
CAUUAGCAAUAUUACGCCGU	-2.04 ± 0.15	-1.84 ± 0.21
CAUUAGCAAUAUUACGCGAG	-1.52 ± 0.11	-0.923 ± 0.095
CAUUAGCAAUAUUACGGCGU	-2.25 ± 0.13	-0.905 ± 0.13
CAUUAGCAAUAUUACGGCUA	-2.88 ± 0.29	-1.47 ± 0.15
CAUUAGCAAUAUUACGGUGC	-4.19 ± 0.31	-2.34 ± 0.3
CAUUAGCAAUAUUACGUACC	-3.96 ± 0.21	-1.28 ± 0.13
CAUUAGCAAUAUUACGUCUA	-2.74 ± 0.17	-2.2 ± 0.17
CAUUAGCAAUAUUACGUUGA	-3.86 ± 0.37	-2.65 ± 0.34
CAUUAGCAAUAUUACGUUUG	-2.16 ± 0.1	-1.51 ± 0.13
CCAAAGCAAUAUUACGAACG	0.08 ± 0.054	-0.168 ± 0.071
CCAAAGCAAUAUUACGAAUG	-1.03 ± 0.07	-0.166 ± 0.092
CCAAAGCAAUAUUACGAGAG	-2.24 ± 0.23	-1.91 ± 0.2

Sequence	self-splicing fitness (ln) (30 °C)	self-splicing fitness (ln) (37 °C)
CCAAAGCAAUAUUACGAUCC	-3.73 ± 0.31	
CCAAAGCAAUAUUACGAUGA	-2.55 ± 0.12	-1.34 ± 0.09
CCAAAGCAAUAUUACGAUUG	-1.36 ± 0.06	-0.695 ± 0.081
CCAAAGCAAUAUUACGCACU	-2.09 ± 0.19	-2.75 ± 0.23
CCAAAGCAAUAUUACGCAGG	-3.23 ± 0.15	-3.74 ± 0.27
CCAAAGCAAUAUUACGCAUU	-3.34 ± 0.26	-3.55 ± 0.46
CCAAAGCAAUAUUACGCGAA	-2.8 ± 0.44	-2.5 ± 0.28
CCAAAGCAAUAUUACGCUGU	-3.89 ± 0.14	-2.69 ± 0.15
CCAAAGCAAUAUUACGGACG	-0.4 ± 0.064	0.287 ± 0.091
CCAAAGCAAUAUUACGGCUU	-4.45 ± 0.21	-2.32 ± 0.14
CCAAAGCAAUAUUACGGUUA	-2.46 ± 0.12	-2.48 ± 0.14
CCAAAGCAAUAUUACGGUUG	-1.18 ± 0.062	-0.628 ± 0.074
CCAAAGCAAUAUUACGUCCC	-3.62 ± 0.35	-1.59 ± 0.27
CCAAAGCAAUAUUACGUGCG	-0.979 ± 0.065	-0.611 ± 0.081
CCACAGCAAUAUUACGACUG	-2.92 ± 0.11	-0.694 ± 0.092
CCACAGCAAUAUUACGCAAU	-3.41 ± 0.2	-2.66 ± 0.25
CCACAGCAAUAUUACGCACU	-3.41 ± 0.1	-2.27 ± 0.12
CCACAGCAAUAUUACGCCGA	-3.67 ± 0.26	-2.26 ± 0.17
CCACAGCAAUAUUACGCCGU	-2.9 ± 0.24	-1.87 ± 0.24
CCACAGCAAUAUUACGCGGG	-3.14 ± 0.12	-2.77 ± 0.16
CCACAGCAAUAUUACGGAAG	-1.87 ± 0.098	-0.76 ± 0.1
CCACAGCAAUAUUACGGACU	-3.9 ± 0.15	-2.95 ± 0.14
CCACAGCAAUAUUACGGGGA	-3.12 ± 0.19	-2.51 ± 0.17
CCACAGCAAUAUUACGGGUA	-3.44 ± 0.21	-2.88 ± 0.18
